Where a chain is given by its changes, count along the chain named. In names and notes the source's numbering stands. Like-named read-outs stand apart in the source and are kept apart here. Blank lines part the entries; values can stand above or below the binder they belong to.
How the values were obtained:
[1] = molecular target: T1, N-terminally FLAG-tagged cynomolgus Ang2 (HEK293T conditioned medium) (cynomolgus, UniProt O15123 19-496 (human entry), limits assumed); assay: competition ELISA, FLAG-cAng2 on coated cTie2-Fc
T1 construct: may be a nucleotide entry; also called cAng2; FLAG-cAng2
T1 chain: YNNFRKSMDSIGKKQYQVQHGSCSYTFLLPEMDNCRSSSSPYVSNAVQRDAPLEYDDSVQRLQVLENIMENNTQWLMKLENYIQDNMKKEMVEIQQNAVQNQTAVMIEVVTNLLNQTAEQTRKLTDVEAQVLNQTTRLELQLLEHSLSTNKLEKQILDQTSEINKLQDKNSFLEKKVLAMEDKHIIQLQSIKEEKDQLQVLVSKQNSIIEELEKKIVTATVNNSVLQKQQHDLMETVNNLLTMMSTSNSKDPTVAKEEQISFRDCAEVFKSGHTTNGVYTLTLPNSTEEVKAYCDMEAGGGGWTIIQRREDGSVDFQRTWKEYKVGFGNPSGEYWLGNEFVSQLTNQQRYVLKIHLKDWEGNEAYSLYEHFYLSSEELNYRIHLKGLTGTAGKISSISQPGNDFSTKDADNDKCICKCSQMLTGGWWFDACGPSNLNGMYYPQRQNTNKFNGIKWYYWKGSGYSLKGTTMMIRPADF
Experimental: (§1) In brief, 2 μg/mL of recombinant mouse Tie2-Fc or cyno Tie2-Fc is coated overnight at 4° C. in a 96-well MaxiSorp plate (Nunc, Wiesbaden, Germany). Coated wells are blocked with a 1% casein solution.

[2] = molecular target: T2, N-terminally FLAG-tagged mouse Ang2 (HEK293T conditioned medium) (mouse, UniProt O35608 19-496); assay: competition ELISA, FLAG-mAng2 on coated mTie2-Fc
T2 construct: may be a nucleotide entry; also called mAng2; FLAG-mAng2
T2 sequence: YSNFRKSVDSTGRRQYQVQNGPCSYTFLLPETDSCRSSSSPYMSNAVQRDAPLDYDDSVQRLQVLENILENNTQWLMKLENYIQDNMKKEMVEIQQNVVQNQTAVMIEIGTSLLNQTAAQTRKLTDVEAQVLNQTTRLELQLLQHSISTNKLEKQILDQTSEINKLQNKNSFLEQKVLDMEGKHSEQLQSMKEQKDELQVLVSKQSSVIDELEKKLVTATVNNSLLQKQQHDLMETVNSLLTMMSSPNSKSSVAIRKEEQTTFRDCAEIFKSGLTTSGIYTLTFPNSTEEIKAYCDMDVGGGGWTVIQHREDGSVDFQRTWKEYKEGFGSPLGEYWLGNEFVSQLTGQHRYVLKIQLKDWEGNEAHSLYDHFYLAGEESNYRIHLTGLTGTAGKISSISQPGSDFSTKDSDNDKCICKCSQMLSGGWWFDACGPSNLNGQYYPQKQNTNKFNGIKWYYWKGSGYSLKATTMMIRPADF
Experimental: as §1

[3] = molecular target: T3, recombinant cynomolgus Ang2-FLD (cynomolgus); assay: SPR (Biacore T100), binder on CM5 chip, Ang2-FLD as analyte
T3 construct: domain: FLD; also called cyno Ang2-FLD
Experimental: (§2) In brief, VHH and benchmark compounds are immobilized on a CM5 chip via amine coupling. […] Ang2-FLD species are allowed to associate for 2 min and to dissociate for 20 min at a flow rate of 45 μL/min. In between injections, the surfaces are regenerated with a 10 sec pulse of 25 mM NaOH and 60 sec stabilization period. Association/dissociation data are evaluated by fitting a 1:1 interaction model (Langmuir binding). The affinity constant KD is calculated from resulting association and dissociation rate constants kₐ and kd and are depicted in Table 8.

[4] = molecular target: T4, recombinant human Ang2-FLD (human, UniProt O15123 275-496, limits assumed); assay: as above
T4 construct: domain: FLD; not used
T4 sequence (looked up): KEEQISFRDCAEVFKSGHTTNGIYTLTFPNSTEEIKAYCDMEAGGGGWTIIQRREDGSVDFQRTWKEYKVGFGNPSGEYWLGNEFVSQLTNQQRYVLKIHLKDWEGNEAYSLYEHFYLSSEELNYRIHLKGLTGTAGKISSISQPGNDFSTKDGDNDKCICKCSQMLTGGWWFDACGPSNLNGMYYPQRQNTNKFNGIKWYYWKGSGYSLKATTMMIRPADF
Experimental: as §2

[5] = molecular target: T5, recombinant mouse Ang2-FLD (mouse, UniProt O35608 275-496, limits assumed); assay: as above
T5 construct: domain: FLD
T5 sequence (looked up): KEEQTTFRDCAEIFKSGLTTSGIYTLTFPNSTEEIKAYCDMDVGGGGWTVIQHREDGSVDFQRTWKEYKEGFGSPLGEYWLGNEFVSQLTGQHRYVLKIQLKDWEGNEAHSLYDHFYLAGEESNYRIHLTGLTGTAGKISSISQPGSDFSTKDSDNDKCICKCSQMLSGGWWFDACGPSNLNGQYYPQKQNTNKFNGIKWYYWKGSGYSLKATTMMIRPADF
Experimental: as §2

[6] = molecular target: T6, FLAG-tagged recombinant human Ang1 (Alexis Biochemicals) (human, UniProt Q15389 20-498, limits assumed); assay: competition ELISA, periplasmic extract, FLAG-hAng1 on hTie2/Fc
T6 construct: Bought reagent; also called hAng1; FLAG-hAng1
T6 sequence (looked up): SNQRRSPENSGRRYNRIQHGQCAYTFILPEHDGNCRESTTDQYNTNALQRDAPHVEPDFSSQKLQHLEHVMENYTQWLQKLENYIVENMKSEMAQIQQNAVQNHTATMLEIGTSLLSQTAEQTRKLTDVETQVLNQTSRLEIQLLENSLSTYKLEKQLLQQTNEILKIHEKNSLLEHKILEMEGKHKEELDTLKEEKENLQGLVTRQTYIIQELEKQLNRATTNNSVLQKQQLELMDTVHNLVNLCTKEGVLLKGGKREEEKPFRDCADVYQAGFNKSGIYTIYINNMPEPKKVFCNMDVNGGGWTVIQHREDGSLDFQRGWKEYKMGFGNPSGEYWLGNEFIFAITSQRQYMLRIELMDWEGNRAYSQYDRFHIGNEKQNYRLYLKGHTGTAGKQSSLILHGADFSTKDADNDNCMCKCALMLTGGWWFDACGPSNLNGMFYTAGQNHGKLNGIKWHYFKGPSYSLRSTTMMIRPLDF
Experimental: (§3) In brief, human Tie2/Fc chimera (R&D Systems, Minneapolis, Minn., USA) is biotinylated using N-hydroxysulfosuccinimide ester of biotin (Thermo Fisher Scientific, Rockford, Ill., USA). […] To this mixture, the Acceptor beads and 0.3 nM biotinylated human Tie2/Fc chimeras are added and further incubated for 2 hours at room temperature. Finally, streptavidin conjugated Donor beads (Perkin Elmer, Waltham, Mass., US) are added and the mixture is incubated for an additional 2 hours at room temperature. Assay buffer is PBS+0.03% Tween-20+0.1% BSA. Fluorescence is measured using the Envision Multilabel Plate reader (Perkin Elmer, Waltham, Mass., USA) using an excitation wavelength of 680 nm and an emission wavelength of 520 nm. […] In brief, human or mouse Tie2/Fc chimera (R&D Systems, Minneapolis, Minn., USA) are immobilized at 2 μg/mL overnight at 4° C. in a 96-well MaxiSorp plate (Nunc, Wiesbaden, Germany). Wells are blocked with a 1% casein solution. […] This mixture is added to the Tie2/Fc coated well and incubated for 2 hours at room temperature. Residual binding of Ang is detected using HRP-conjugated anti-FLAG M2 antibody (Sigma, St Louis, Mo., USA).

[7] = molecular target: T2, N-terminally FLAG-tagged mouse Ang2 …; assay: competition ELISA, periplasmic extract, FLAG-mAng2 on mTie2/Fc
Experimental: as §3

[8] = molecular target: T6, FLAG-tagged recombinant human Ang1 …; assay: ratio of IC50 in hAng1/hTie2 ELISA to IC50 in hAng2/hTie2 ELISA
Experimental: In brief, 2 μg/mL of Tie2/Fc chimera (R&D Systems, Minneapolis, Minn., USA) is coated in a 96-well MaxiSorp plate (Nunc, Wiesbaden, Germany).
In brief, 2 μg/mL of recombinant human Tie2-Fc (R&D Systems, Minneapolis, Minn., USA) is coated overnight at 4° C. in a 96-well MaxiSorp plate (Nunc, Wiesbaden, Germany). Coated wells are blocked with a 1% casein solution.

FLAG-tagged mouse Ang2 [9] = molecular target: T7, FLAG-tagged mouse Ang2 (mouse, UniProt O35608 19-496); assay: competition ELISA: FLAG-mAng2 binding to coated mTie2-Fc
T7 construct: N-terminally FLAG-tagged, conditioned medium of HEK293T cells; also called mAng2; FLAG-mAng2
T7 sequence: T2 sequence
Experimental: as §1

[10] = molecular target: T8, FLAG-tagged cynomolgus Ang2 (cynomolgus, UniProt O15123 19-496 (human entry), limits assumed); assay: competition ELISA: FLAG-cAng2 binding to coated cTie2-Fc
T8 construct: N-terminally FLAG-tagged, conditioned medium of HEK293T cells; also called cAng2; FLAG-cAng2
T8 chain: T1 chain
Experimental: as §1

FLAG-tagged mouse Ang2 [11] = molecular target: T7, FLAG-tagged mouse Ang2; assay: competition ELISA: FLAG-mAng2 binding to coated mTie2-Fc; remark: listed apart in the source
Experimental: as §1

[12] = molecular target: T8, FLAG-tagged cynomolgus Ang2; assay: competition ELISA: FLAG-cAng2 binding to coated cTie2-Fc
Experimental: as §1

[13] = molecular target: T4, recombinant human Ang2-FLD; assay: ProteOn off-rate assay, periplasmic extracts over coated human Ang2-FLD
Experimental: In a first cycle, amino acid substitutions are introduced randomly in both framework (FW) and complementary determining regions (CDR) using the error-prone PCR method. […] After a polish step, PCR products are inserted via unique restriction sites into a vector designed to facilitate phage display of the VHH library. […] Periplasmic extract of affinity matured clones is diluted 1:10 and injected across the “analyte channels” A1-A6.

[14] = molecular target: T8, FLAG-tagged cynomolgus Ang2; assay: competition ELISA: FLAG-cAng2 binding to coated cTie2-Fc
[15] = molecular target: T8, FLAG-tagged cynomolgus Ang2; assay: as above
Experimental: as §1

FLAG-tagged mouse Ang2 [16] = molecular target: T7, FLAG-tagged mouse Ang2; assay: competition ELISA: FLAG-mAng2 binding to coated mTie2-Fc; remark: listed apart in the source
Experimental: as §1

IC50 [1]: 2 nM
IC50 [2]: 6.1 nM
Kd [3]: 1.4 nM
koff [3]: 0.025 s⁻¹
kon [3]: 1.8e+07 M⁻¹ s⁻¹
Kd [4]: 1.3 nM
koff [4]: 0.0062 s⁻¹
kon [4]: 4.9e+06 M⁻¹ s⁻¹
Kd [5]: 5.6 nM
koff [5]: 0.011 s⁻¹
kon [5]: 1.9e+06 M⁻¹ s⁻¹
% inh [6]: 4%
% inh [7]: 93%
hAng1/hAng2 ratio [8]: > 3080
B1: VHH 28D10 (VHH)
VHH: EVQLVESGGGLVQAGGSLRLSCAASGFTLDDYAIGWFRQAPGKEREGVSCIRDSDGSTYYADSVKGRFTISSDNDKNTVYLQMNSLKPEDTAVYYCAAVPAGRLRFGEQWYPLYEYDAWGQGTQVTVSS
notes: also called 028D10; not shown: C-terminal c-myc tag and His6 tag

IC50 (FLAG-tagged mouse Ang2 [9]): 5.7 nM
IC50 [10]: 2.1 nM
IC50 (FLAG-tagged mouse Ang2 [11]): 5.7 nM
IC50 [12]: 2.1 nM
B2: VHH 28D10 (VHH, not shown: small tags and cut ends)
VHH: B1 VHH
notes: Parental llama VHH; also called 028D10

fold improvement (off-rate against VHH 00027) [13]: 9.4 fold
B3: variant(s) of VHH 00027 carrying F27L and L100iI (VHH)
VHH: B1 VHH with F27L, C50S, S54N, L113I, Q124L
notes: also called L100il

IC50 [14]: 0.079 nM
IC50 (FLAG-tagged mouse Ang2 [9]): 0.085 nM
IC50 [15]: 0.079 nM
IC50 (FLAG-tagged mouse Ang2 [16]): 0.085 nM
B4: VHH 00908 (VHH, not shown: small tags and cut ends)
VHH: B1 VHH with A14P, F27I, C50S, S54N, D55G, D75S, K87R, F106Y, L113I, Q124L

IC50 [14]: 0.753 nM
IC50 (FLAG-tagged mouse Ang2 [9]): 1.91 nM
IC50 [10]: 0.8 nM
IC50 (FLAG-tagged mouse Ang2 [11]): 1.9 nM
B5: VHH 00042 (VHH, not shown: small tags and cut ends)
VHH: B1 VHH with A14P, C50S, S54N, D75S, K87R, Q124L

fold improvement (off-rate against VHH 00027) [13]: 2 fold
B6: variant(s) of VHH 00027 carrying A24V (VHH, name in Kabat numbering)
VHH: B1 VHH with A24V, C50S, S54N, Q124L
notes: not shown: C-terminal c-myc tag and His6 tag

IC50 [14]: 0.728 nM
IC50 (FLAG-tagged mouse Ang2 [9]): 1.98 nM
IC50 [10]: 0.7 nM
IC50 (FLAG-tagged mouse Ang2 [11]): 2 nM
IC50 [15]: 0.728 nM
IC50 (FLAG-tagged mouse Ang2 [16]): 1.98 nM
B7: VHH 00027 (VHH, not shown: small tags and cut ends)
VHH: B1 VHH with C50S, S54N, Q124L
notes: Variant of 28D10 carrying C50S/S53N and Q108L
